Assay: soluble on expression in E. coli; label from the status in PepcDB or PDB records

Sequence | soluble on expression in E. coli
MGSDKIHHHHHHAAPSPDAQRVAAYAASHFQQAQIDTLKTLVGYDTRARDGLTPDTDPVFADFKRALGVKARMLGLDVEDNGYVMLISLSPEGAGTDVKKVGVITHGDVQPADPSLWPQSPYELTETADGRLVGRGAEDDKGPIATALYAMKAIKDSGIVLKRRIELLVYMAEESDWEPLKDFLKTYEPADINITLDAEYPVVTGEKGWSQIKLSLPRVMVKVGADTPVLTYFSGGSFASQIPQQASAVIQNTNPELVAALKARAKTLPIKTDFIDEPQGLTIHATGKAAHSSTPEDGINAVAYLAELLSPTADGGIPEWPMTTAAVTVDFLHSLVGTGLYGERFGKLGYSDEFMGPMTLAPTLITEGKEGTDVTLNLRRPVGRTPEALDKLAIAAIHGWQDARGTQVADIETYWGTPMLIDDAPHLETLLGVFGHYTNTAGPKPIAIGGSTNAKLFPNALSFGPAMPGMEYTGHSEYEFITRDQLKLNLEMYTAALVELAMRE | not soluble
MASKPEKRVASSVFITLAPPRRDV | soluble
GVSVDARIAKNVEEFLAAAQEINPSYHLISGYRSVAYQTELYNSYVQQEMADDPTLTESQAEKKVQTYSQPPGASEHQTGLAIDMSTVDSLDEADPATVAKVKKIAPKYGFVLRFPDGKTSSTGVGYEDWHFRYVGKESAEYMTEHNLTLEEYLVLLKEKTK | not soluble
MGSDKIHHHHHHMPSIFEKYHLKQVINTSGRMTALGVSTPRPEVVEAAMAGMNQYFEMKDLVNKTGEYIAKLLDVEGATVVSCASAGIAQSVAAVLVKDSDWLLENLHVTPIENNEIVLPKGHNVNFGAPVGTMVALGGGKLVEAGYANECSAQQLAAAITPRTAAILYIKSHHCVQKSMLNVAQAAEVARQHNVPLIVDAAAEEDLQCYYRMGADLVIYSGAKAIEGPTSGLVIGKTQYVEWVKRQSMGIGRAMKVGKEGILGLTCAIEHYLTASKESGQQMVAKMTPFIEQLNTLNGVTARVVWDSAGRDIARAEIKFDEATTGVKTGDLVNALKQGEYAIYFRGYKANEGIIEADVRSVNAQQLEVVARRIAEVLNKEKQA | not soluble
MSLTYYDDIRKVQDLHLPWEILTDINILIVGASGLIGRALVDTLMQLPDKTFHLYAGVRDLVYAQSCFMRYKDDESFTLIQCDVTALIPFDIDFHYIIHAASYAGPAAFHNDPVGVMKANILGVDNLFSYGEQHNLRRLLYVSSGEVYGEGNGIPFREEDSGSLDWASLRACYPAAKRTAETLCIAYAAQFQIETVIARPCHIYGPFYTSKDDRAYAQFIRNVLAGENIILRSSGLQQRSWCYVVDCVFALLYVLLKGKTKNAYNIADVRSNVSIREFAEMIALKSEREVIFDLPDNTGKNKPIISQAIFNTEKINKIGWFPQWKLEEGVSHTLNTLISVDGTYEGHITITTDPNSSSVDKLAAALEHHHHHH | soluble
MGSDKIHHHHHHMSKGRHVCFLTGTLNAMAGAERMTAVIANALAESGHTVSILSLWDKDSCFPLHPAVGHEALFAERPSFKKAYLTTVAGIRRYCRERKVDVLVQVDTMLALLALPATVGLGVQHIAWEHCHFDEDLGRRARRYARRLAARYCKHVVVLTERDQLRWIEALQPRSQVVIIPNPLPFPFPEEPAPRTGKIVLAMGRLVNAKGFDVLIRAWQRVSAEVPDWKLVIHGEGEERPALSALIDELGLQDSVSLPGICRDATEAYREASIFCLSSRYEGFGLVLIEAMAFGLPIVSTNCEAGPRELLATGTVGLTVPVDAPTMLAASILDLIHQPDLALRFAHAERMFAKGYSLQQIGARWSDLTSARHGSMPQYS | not soluble
MHHHHHHSSGMNWTVDIPIDQLPSLPPLPTDLRTRLDAALAKPAAQQPTWPADQALAMRTVLESVPPVTVPSEIVRLQEQLAQVAKGEAFLLQGGDCAETFMDNTEPHIRGNVRALLQMAVVLTYGASMPVVKVARIAGQYAKPRSADIDALGLRSYRGDMINGFAPDAAAREHDPSRLVRAYANASAAMNLVRALTSSGLASLHLVHDWNREFVRTSPAGARYEALATEIDRGLRFMSACGVADRNLQTAEIYASHEALVLDYERAMLRLSDGDDGEPQLFDLSAHTVWIGERTRQIDGAHIAFAQVIANPVGVKLGPNMTPELAVEYVERLDPHNKPGRLTLVSRMGNHKVRDLLPPIVEKVQATGHQVIWQCDPMHGNTHESSTGFKTRHFDRIVDEVQGFFEVHRALGTHPGGIHVEITGENVTECLGGAQDISETDLAGRYETACDPRLNTQQSLELAFLVAEMLRD | soluble
ENEIERPEDMRVRTLANKSKMKVSIVQQIDRKVALDDIAVSHGLDFPELLSEVETIVYSGTRINIDYFINEVMDEDHLEDIFEYFKESTTDSLEEAMQELGKDYSEEEIRLVRIKFLSEMAN | soluble
RQACYQEIIDTILSKKPHAFESLVVLLLQKMGYGGEIKQSGLVTPYSNDGGIDGIIKEDVLGFGRIHIQAKRYALENSVQRQEIQSFVGALAVAQSNKGVFITTSSFSRGAIQYAVGLNGSTTLILIDGQKLAEYIYEYGVGLQVEHTVEIKKLDSEFWDSMENEAGVPDL | not soluble
MLKKRELQDCHALYELMVHPDVFPFVRQKASSYEEFLFMTKQLMEAEERGELISRTILDEWGNPIGTISLFDIQDGAGFLGTWLGKPYHGLGYNRRAKEAFFHELFYELSIETVFLRIRKVNVRSIKAAEKLPYVTPANETRRALLEQIGADVYNLYEITKDNYTLYTMRHPSFAHNEEQRKEA | not soluble
MAHHHHHHMGKLQAPCSPTVCGYPLPYPRSLSHNLFNVIQDTRRKGKTNTEQSELKNEGDPLTLSPIVPKVDTSPATESKGRRREEKPLAHEGQLLKHKLDVWRDLFLASAAQQLAASGHPRSRRDDAGNVFYSNISCYLKEGCIVKSEDTDLRTGPRDHLRVQGAYLSHLAPEAFANLHVTLDGNTFVLRNVQRTSPTIKQISEELCEERGIRLLPTAMQKKVAYLVSQVSTSTKERAGTISGKKGLATSKWKHTNSLQTCKHSLNMELPEVTYRSRVLSTIREGAYGSPFQKGCKM | not soluble
GPGSMWKCYPLRCPAATGVFGCFKRLQDGYSAWCAAVSNQETASAKTSSRGSGAENTENLQLPIHTNPNACPRSVLVVPAGDIKDALRRQKRYDVVADVVMLDLTRGVFGGSDRSGGASEARDRLLRFLRESVRGDHMEGCSDDGEWKTQSGEGTVGQIFNGGRARWVVRVNSPEFDAARGFLDMELVGVLGDLIEGVVLPSVTANTYELVQEFIHPSHKLWAAFNTPLSVLQASAVCAQGHYRYAIVDREELAYEMQYPSVNSEKRSGSLNFSEDVEATQLKHVRSLPALHSACQVMTAAKAHGMYLFDGGFSDVSDSIGFRHDMQRCRAFGFDGRVVLRPSQIAACHEAFVPTSEEVEWAKAVQRTHCMDQYNVNGDNATSVGGDATCRRQRAALILERHAAVQWYNRNPQDDGMDMQRKGAGGNVPQGSVV | not soluble
LPSGIIIKGIGGFYYVKTENGIYECKARGVFRKDSKIPLPGDEVVISVIDEEKKKGYIEEICERKIQLIRPAVANINQIALVVSVKSPLPDFVLLDKLLITVMQKELNAIICINKIDLDEGYKDVIIDCYKGTGVETVCVSSVLNVGFEQLAKMLEGKTTVFAGQSGVGKSTILNKILDSYVMETGEISDKIERGRHTTRHAELLELKSGGFVVDTPGFSSFELSEIEPKELQNYYPEFRDYIGKCRFAGCSHISEPGCMVKSALENGMINKDRYGRYIIFYNMLKDKQRRKYS | not soluble
MKVVRVCGGFGNQLFQYAFYLAVKHKFNETTKLDIHDMASYELHNGYELERIFNLNENYCSAEEKLAVQSTKNIFTKLLKEIKKYTPFIPRTYIKEKKHLHFSYQEVDLGTKDTSIYYRGSWQNPQYFNSIASEIREKLTFPEFTEPKSLALHQEISEHETVAVHIRRGDYLKHKALGGICDLPYYQNAIKEIEGLVEKPLFVIFSDDITWCRANINVEKVRFVDWNSGEQSFQDMHLMSLCTHNIIANSSFSWWGAWLNANPNKIVISPNKWIHYTDSMGIVPSEWIKVETSILEHHHHHH | not soluble
MDIISKSGEGNKYTINSAIAFVAYASHIDINTTEFSKVLSGLRDFINDEAIRLGGKISDGSFNKCNGDWYEWLIGIRAIEFFLESETNFIVVKMPNATSFDVMSIYKSCLSEFIYDLRSKLSLNNVNLITSNPDFSIIDIRGRREELKSMLKDISFSNISLSTISEIDNLYKNFIDYAELEHIKSFLSVKTTFRPDRRLQLAHEGSLMKALYTHLQTRTWTINPTGIRYYAAATSIGNADVIGLKTVATHSITDVKSLPQSAVDEIFKINSVLDVDSCLSHILSS | soluble
MYNSKQFLRTVNWHFVNSCNMSCKYCFVSCCKELPLEESISVLEKLKGHFDRINFVGGEPTVSSKLIPLVKKAKEYGFIVSMVTNGFNLYHKPETFDEILTDFSIIGISIDSLNENTNVLIGRSVKNSVLSRDDYIDLCKKIKLAGCKLKINTVVSRVNLDENFNDFYETVMPDRIKLLQVLRPAGRLKQDYTDFLIEEDDYLEFVQRHHKFSEVICSENNELMLNSYYILNSDACFLDNKSGCISGSLLENDLKSVLKNVYVDENKYRARYA | not soluble
STSTFNPRECKLSKQEGQNYGFFLRIEKDTEGHLVRVVEKCSPAEKAGLQDGDRVLRINGVFVDKEEHMQVVDLVRKSGNSVTLLVLDGDSYEKAVKTRVDLKELGQSQKEQGLSDNILSPVMNGGVQTWTQPRLCYLVKEGGSYGFSLKTVQGKKGVYMTDITPQGVAMRAGVLADDHLIEVNGENVEDASHEEVVEKVKKSGSRVMFLLVDKETDKRHVEQKIQFKRETASLKLLPHQPRIVEMKKGSNGYGFYLRAGSEQKGQIIKDIDSGSPAEEAGLKNNDLVVAVNGESVETLDHDSVVEMIRKGGDQTSLLVVDKETDNMYRLAHFSPFLYYQSQELPNGSVKEAPAPTPTSLEVSSPPDTTEEVDHKPKLCRLAKGENGYGFHLNAIRGLPGSFIKEVQKGGPADLAGLEDEDVIIEVNGVNVLDEPYEKVVDRIQSSGKNVTLLVCGKKAYDYFQAKKIPIVSSLADPLDTPPDSKEGIVVESNHDSHMAKERAHSTASHSSSNSEDTEM | soluble
MRLASMGEEDSTPGRRSKAYSRQGADVRPMKGGHGINLVGTLMAATERGANIVEGVVDFRPTDLRGSLRRGREANLIVFVVDTSGSMAARSRVRAVTGTITSMLNDAYQRRDKVAVIAVNGNKPTLVLNPTNSVEQAQQKLKDMPMGGRTPLAEGLLMAKDLMARELRKEPGRRAILMVMTDGQDTSDAGEAGIATAAETVVKSRLSGNVVIDCEGRLKVRKERAGVLAEMLGGVCVRLRDLNSEHIKMVINA | not soluble
MGSDKIHHHHHHMRKDVLEGVLLHIMNEIHPNFAALAKQYNCDYRTVKRYYEAGLTGDLDKLRERKPSVPPLLHGFEEIIRDKLELNCSAASIFYFLGKKDYKGSYTTIKRYCRKYREEKVQKATIRIETTPGLSAQVDWKENVKMVSRDGEVFYFNIFLYILGYSRMKYLELTFDRTQPTVFQCLVNAFEYCGNGIPQEIWFDNMKTVVDRSKSQFTQTVFNEKFRQFAKDAGFHPIACRPFRPQTKGKVEALARTVERLMVFNYEFTDVQELKQIIYELMQDLNGSVSQAIHNKPTVLLKEELPILAPIHRLELLSYVSRNKRLLRKVSMESMVQYQNAKYSVPVKYIGKEVTLDIRRDNLFVWYGDKCIRTHPISEKALNYQREDSLEILRSDVFKYLEDEELERFVDDNLHAYDDL | not soluble
KPEPTNSSVEVSPDIYQQVRDELKRASVSQAVFARVAFNRTQGLLSEILRKEEDPRTASQSLLVNLRAMQNFLNLPEVERDRIYQDER | soluble
MSTMQTELIIVSEYCQKCHIEPSFIEMLEEGGLINVRTEAGKHYLLVSELPNVERYSRMYYDLSINMEGIDAIHHMLERMDDMRREITSLRKQLLLFREREIEEADW | not soluble

Source: the DeepSol protein solubility set
